Data: patent US20140179896A1 (published 2014)
Numbering of substitutions follows the chain as printed. Numbers in names are those of the source. Blank lines part the entries; values can stand above or below the binder they belong to.

How the values were obtained:
[1] = molecular target: T1, mouse vascular endothelial growth factor receptor-2 Fc chimera (Flk-1-Fc) (mouse, UniProt P35918 20-762); test: KD against mouse Flk-1 by the BIAcore binding assay; value not given
T1 construct: Purchased from R&D Systems; also called mouse VEGF-R2; not shown: Fc part of the purchased chimera
Method: Following the methodologies described in the preceding Examples, additional ¹⁰Fn3-based KDR binding proteins were generated. As described for the development of the M5FL protein in Example 5, above, proteins were tested for KD against human KDR and mouse Flk-1 using the BIAcore binding assay and for IC50 in a Ba/F3 assay.
(§1) The binding kinetics of fibronectin-based scaffold proteins binding proteins to the target was measured using BIAcore 2000 biosensor (Pharmacia Biosensor). Human and mouse VEGF-R2-Fc fusions were immobilized onto a CM5 sensor chip and soluble binding proteins were injected at concentrations ranging from 0 to 100 nM in buffer 0 (10 mM HEPES, 150 mM NaCl, 0.005% Tween 20, pH 7.4). Sensorgrams were obtained at each concentration and were evaluated using a program, BIA Evaluation 2.0 (BIAcore), to determine the rate constants kₐ (kₒₙ) and kd (koff.) The affinity constant, KD was calculated from the ratio of rate constants […].
T1 sequence (P35918 20-762, stated change not applied): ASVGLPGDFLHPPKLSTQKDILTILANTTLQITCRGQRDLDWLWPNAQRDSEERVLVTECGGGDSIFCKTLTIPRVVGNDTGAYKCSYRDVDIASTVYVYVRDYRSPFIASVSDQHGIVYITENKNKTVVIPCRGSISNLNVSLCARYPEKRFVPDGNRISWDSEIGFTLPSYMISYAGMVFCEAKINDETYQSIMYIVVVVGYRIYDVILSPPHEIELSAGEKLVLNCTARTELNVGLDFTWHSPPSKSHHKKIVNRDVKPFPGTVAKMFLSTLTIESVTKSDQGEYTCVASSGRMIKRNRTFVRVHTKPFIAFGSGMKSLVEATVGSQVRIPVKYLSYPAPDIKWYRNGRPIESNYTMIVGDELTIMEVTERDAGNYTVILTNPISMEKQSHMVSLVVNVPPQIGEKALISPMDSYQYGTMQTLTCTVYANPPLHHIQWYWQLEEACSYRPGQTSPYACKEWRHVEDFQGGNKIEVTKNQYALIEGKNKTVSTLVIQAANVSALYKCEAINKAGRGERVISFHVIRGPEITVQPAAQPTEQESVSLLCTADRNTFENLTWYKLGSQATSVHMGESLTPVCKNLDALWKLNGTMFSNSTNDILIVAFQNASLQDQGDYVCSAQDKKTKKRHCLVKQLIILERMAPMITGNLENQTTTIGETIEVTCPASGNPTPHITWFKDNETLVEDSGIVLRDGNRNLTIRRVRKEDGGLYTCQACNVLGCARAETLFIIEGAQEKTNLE

[2] = molecular target: T2, full-length human KDR on cells (human, UniProt P35968 20-1356); test: cell-based or functional assay
[3] = molecular target: human KDR/EpoR fusion (phKE8) on Ba/F3 cells (human, UniProt P35968 20-764; P19235 251-508, limits assumed); test: cell-based or functional assay
[4] = molecular target: T3, murine VEGFR-2/EpoR chimera (flk-1/EpoR fusion, pmKE2) on cells (mouse; human, UniProt P35918 20-762; P19235 251-508, limits assumed); test: cell-based or functional assay
T3 sequence (P35918 other isoform, or with tags, fused parts or gaps mutant limits assumed, form in doubt): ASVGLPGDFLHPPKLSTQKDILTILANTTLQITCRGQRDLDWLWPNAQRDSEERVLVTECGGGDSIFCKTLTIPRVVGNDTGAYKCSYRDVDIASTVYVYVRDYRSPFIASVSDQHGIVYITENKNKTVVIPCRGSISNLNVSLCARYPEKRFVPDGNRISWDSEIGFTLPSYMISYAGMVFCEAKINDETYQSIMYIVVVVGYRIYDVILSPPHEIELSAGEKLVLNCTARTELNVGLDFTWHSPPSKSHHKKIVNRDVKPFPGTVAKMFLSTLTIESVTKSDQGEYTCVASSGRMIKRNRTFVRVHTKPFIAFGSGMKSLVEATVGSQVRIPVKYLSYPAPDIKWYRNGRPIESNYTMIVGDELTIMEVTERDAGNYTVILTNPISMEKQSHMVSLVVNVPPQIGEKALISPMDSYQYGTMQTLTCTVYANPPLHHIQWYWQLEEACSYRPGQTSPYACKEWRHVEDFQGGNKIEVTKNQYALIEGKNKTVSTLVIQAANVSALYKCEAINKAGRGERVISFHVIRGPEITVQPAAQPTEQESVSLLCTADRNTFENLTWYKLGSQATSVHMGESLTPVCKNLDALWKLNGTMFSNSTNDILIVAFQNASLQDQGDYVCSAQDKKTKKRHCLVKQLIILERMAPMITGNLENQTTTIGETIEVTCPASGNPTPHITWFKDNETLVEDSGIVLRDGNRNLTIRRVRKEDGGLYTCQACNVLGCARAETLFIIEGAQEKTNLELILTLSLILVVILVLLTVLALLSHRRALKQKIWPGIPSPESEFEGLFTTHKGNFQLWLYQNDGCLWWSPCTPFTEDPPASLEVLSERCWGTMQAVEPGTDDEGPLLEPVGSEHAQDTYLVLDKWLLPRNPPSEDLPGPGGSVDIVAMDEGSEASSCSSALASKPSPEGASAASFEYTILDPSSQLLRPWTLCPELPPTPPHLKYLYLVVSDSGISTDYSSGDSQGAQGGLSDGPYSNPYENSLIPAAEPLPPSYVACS

[5] = molecular target: T2, full-length human KDR on cells; test: flow cytometry on CHO KDR cells
Method: (§2) The functionality of KDR and Flk-1 binding molecules in a cell culture model system was evaluated with E. coli produced binding molecules.
(§3) Binding of fibronectin-based scaffold protein to cell-surface KDR and Flk-1 was analyzed simultaneously on VEGF-R2-expressing and control cells by flow cytometry. CHO-pcDNA3 cells (control) were released from their dishes with trypsin-EDTA, washed in Dulbecco's PBS without calcium and magnesium (D-PBS⁻; Invitrogen), and stained for 30 minutes at 37° C. with 1.5 μM CMTMR (5-(and -6)-(((4-chloromethyl)benzoyl)amino)-tetramethylrhodamine) (Molecular Probes). The cells were washed in D-PBS⁻ and incubated for a further 30 minutes at 37° C., and then resuspended in blocking buffer (D-PBS⁻/10% fetal bovine serum) on ice. CHO-KDR or CHO-Flk cells were treated identically except that CMTMR was omitted. 75,000 of CMTMR-stained CHO-pcDNA3 cells were mixed with an equal number of unstained CHO-KDR or CHO-Flk cells in each well of a V-bottom 96-well plate. All antibodies and fibronectin-based scaffold proteins were diluted in 25 μl/well of blocking buffer, and each treatment was conducted for 1 hour at 4° C. Cell mixtures were stained with His₆-tagged (SEQ ID NO: 235) fibronectin-based scaffold proteins, washed twice with cold D-PBS⁻, and then treated with 2.5 μg/ml anti-His₆ (SEQ ID NO: 235) MAb (R&D Systems), washed, and stained with 4 μg/ml Alexa Fluor 488-conjugated anti-mouse antibody (Molecular Probes). For cells treated with an anti-KDR mouse monoclonal antibody (Accurate Chemical, Westbury, N.Y.) or an anti-flk-1 goat polyclonal antibody (R&D Systems), the anti-His₆ (SEQ ID NO: 235) step was omitted, and antibody binding was detected with the species-appropriate Alexa Fluor 488 conjugated secondary antibody (Molecular Probes). Following staining, cells were resuspended in 200 μl/well D-PBS⁻/1% FBS/1 μg/ml 7-aminoactinomycin D (7-AAD; Molecular Probes) and analyzed by flow cytometry on a FACSCalibur (Becton Dickinson, San Jose, Calif.) equipped with a […].

[6] = molecular target: T4, mouse vascular endothelial growth factor receptor-2 Fc chimera (Flk-1-Fc) (mouse, UniProt P35918 20-762); test: radioactive equilibrium binding assay
T4 construct: purchased from R&D Systems; also called mouse VEGF-R2-Fc; not shown: Fc part of the purchased chimera
Method: (§4) To prepare ³⁵S-labeled binding proteins for analysis, mRNA was prepared as described above for RNA-protein fusion production but the linker ligation step was omitted. The mRNA was expressed using rabbit reticulocyte lysate translation kit (Ambion) in the presence of ³⁵S-labeled Met at 30° C. for 1 hour. Expressed protein was purified on M2-agarose Flag beads (Sigma) as described above. This procedure produced the encoded protein without the nucleic acid tail. In a direct binding assay, VEGF-R2-Fc fusions in concentrations ranging from 0 to 200 nM were added to a constant concentration of the purified protein (0.2 or 0.5 nM) and incubated at 30° C. for 1 hour in buffer B. The receptor-binder complexes were captured using Protein A magnetic beads for another 10 minutes at room temperature using a Kingfisher™ The beads were washed with six reaction volumes of buffer B. The protein was eluted from the beads with 100 μL of 0.1 M KOH. […] of the reaction mixture and elution were dried onto a LumaPlate-96 (Packard) and the amount of ³⁵S on the plate was measured using a TopCount NXT instrument (Packard). The amount of fibronectin-based scaffold protein bound to the target was estimated as a percent of radioactivity eluted from Protein A magnetic beads compare to radioactivity in the reaction mixture. Nonspecific binding of fibronectin-based scaffold proteins to the beads was determined by measuring binding in the absence of KDR-Fc and represented less than 1-2% of the input. Specific binding was obtained through subtraction of nonspecific binding from total binding. Data was analyzed using the GraphPad Prizm software (GraphPad Software, Inc, San Diego, Calif.), fitted using a one site, non-linear binding equation.
T4 sequence (P35918 20-762, stated change not applied): as the sequence (P35918 20-762, stated change not applied) above

[7] = molecular target: T5, human vascular endothelial growth factor receptor-2 Fc chimera (KDR-Fc) (human, UniProt P35968 20-764); test: radioactive equilibrium binding assay
T5 construct: range 1-764; purchased from R&D Systems; also called hKDR; human VEGF-R2-Fc; not shown: human IgG1 Fc
Method: as §4

[8] = molecular target: T4, mouse vascular endothelial growth …; test: BIAcore, target-Fc immobilized
Method: as §1

[9] = molecular target: T5, human vascular endothelial growth …; test: BIAcore, target-Fc immobilized
Method: as §1

[10] = molecular target: T3, murine VEGFR-2/EpoR chimera (flk-1/EpoR …); test: flow cytometry on CHO Flk-1 cells
Method: as §2, §3

[11] = molecular target: T5, human vascular endothelial growth …; test: radioactive equilibrium binding
Method: as §4, with “In a direct binding assay, VEGF-R2-Fc fusions in concentrations ranging from 0 to 200 nM were added to a constant concentration of the purified protein (0.2 or 0.5 nM) and incubated at 30° C. for 1 hour in buffer B. The receptor-binder complexes were captured using Protein A magnetic beads for another 10 minutes at room temperature using a Kingfisher™ The beads were washed with six reaction volumes of buffer B. The protein was eluted from the beads with 100 μL of 0.1 M KOH.” left out, “Specific binding was obtained through subtraction of nonspecific binding from total binding.” left out

[12] = molecular target: T5, human vascular endothelial growth …; test: radioactive equilibrium binding assay, KDR-Fc
Method: as §4

[13] = molecular target: T5, human vascular endothelial growth …; test: radioactive equilibrium binding, 1 nM KDR-Fc
Summary of the method: (§5)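 Read-out: eluted ³⁵S as % of input radioactivity, minus bead-only binding without KDR-Fc (under 1-2% of input); one-site non-linear fit. Tracer binder 0.2 or 0.5 nM, receptor-Fc 0–200 nM, 1 h at 30° C in buffer B.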

[14] = molecular target: T6, human vascular endothelial growth factor receptor-2 Fc chimera (KDR-Fc) (human, UniProt P35968 20-764); test: binding to 1 nM KDR-Fc, % of input; radioactive equilibrium binding (assay not given)
T6 construct: range 1-764; also called human VEGFR-2; hKDR; not shown: human IgG1 Fc
Summary of the method: as §5

[15] = molecular target: T1, mouse vascular endothelial growth …; test: radioactive equilibrium binding assay with VEGFR-2-Fc chimeras (FIG. 4)
Method: as §4, with “In a direct binding assay, VEGF-R2-Fc fusions in concentrations ranging from 0 to 200 nM were added to a constant concentration of the purified protein (0.2 or 0.5 nM) and incubated at 30° C. for 1 hour in buffer B. The receptor-binder complexes were captured using Protein A magnetic beads for another 10 minutes at room temperature using a Kingfisher™ The beads were washed with six reaction volumes of buffer B. The protein was eluted from the beads with 100 μL of 0.1 M KOH.” left out, “Specific binding was obtained through subtraction of nonspecific binding from total binding.” left out

[16] = molecular target: T6, human vascular endothelial growth …; test: radioactive equilibrium binding (assay not given)
[17] = molecular target: T1, mouse vascular endothelial growth …; test: Kd for Flk-1 against clone 159Q(8)L
[18] = molecular target: full-length human KDR on cells (human, UniProt P35968 20-1356); test: cell-based or functional assay; remark: listed apart in the source
[19] = molecular target: mouse vascular endothelial growth factor receptor-2 Fc chimera (Flk-1-Fc) (mouse) (UniProt P35918); test: assay not given
mouse vascular endothelial growth factor receptor-2 Fc chimera (Flk-1-Fc) (mouse), sequence (P35918 20-762, change not shown): as the sequence (P35918 20-762, stated change not applied) above

B2: E19 (designed binder)
chain: EVVAATPTSLLISWRHPHFPTRYYRITYGETGGNSPVQEFTVPLQPPTATISGLKPGVDYTITGYAVTVERNGRHLMTPISINYRT
notes: Del 1-8 10Fn3 clone; Flag-tagged in vitro translated protein in the radioactive assay, His6-tagged E. coli protein in BIAcore and cell assays; tags left out
Inhibition of VEGF-induced proliferation of HUVEC cells (IC50, nM) [2]: 11.8 nM | Inhibition of VEGF-induced proliferation, Ba/F3-KDR (IC50, nM) [3]: 12.3 nM | Inhibition of VEGF-induced proliferation, Ba/F3-Flk (IC50, nM) [4]: 5.8 nM | EC50 [5]: 7.6 nM | Kd [6]: < 0.7 nM | Kd [7]: < 1.3 nM | Kd [8]: 0.34 nM | koff [8]: 0.000223 s⁻¹ | kon [8]: 660000 M⁻¹ s⁻¹ | Kd [9]: 0.06 nM | koff [9]: 1.7e-05 s⁻¹ | kon [9]: 300000 M⁻¹ s⁻¹ | EC50 [10]: 5.3 nM

B3: E29 (designed binder)
chain: B2 chain with H75V
notes: as for B2
Inhibition of VEGF-induced proliferation of HUVEC cells (IC50, nM) [2]: 8.4 nM | Inhibition of VEGF-induced proliferation, Ba/F3-KDR (IC50, nM) [3]: 10 nM | Inhibition of VEGF-induced proliferation, Ba/F3-Flk (IC50, nM) [4]: 4.7 nM | EC50 [5]: 2.3 nM | Kd [6]: < 0.9 nM | Kd [7]: < 1.5 nM | Kd [8]: 0.37 nM | koff [8]: 0.000288 s⁻¹ | kon [8]: 790000 M⁻¹ s⁻¹ | Kd [9]: 0.19 nM | koff [9]: 7e-05 s⁻¹ | kon [9]: 360000 M⁻¹ s⁻¹ | EC50 [10]: 0.6 nM

B4: VR28 (designed binder)
chain: VSDVPRDLEVVAATPTSLLISWRHPHFPTRYYRITYGETGGNSPVQEFTVPLQPPTATISGLKPGVDYTITGYAVTVAQNDHELITPISINYRT
notes: scaffold said to be unchanged from wild type 10Fn3; Flag-tagged in vitro translated protein in the radioactive assay, His6-tagged E. coli protein in BIAcore; tags left out; also called VR28 (I69T)
Kd [11]: 11 nM | binding result [6]: no binding (tested: 100 nM) | Kd [7]: 11 nM | Kd [12]: 11 nM | Kd [9]: 13 nM | koff [9]: 0.00034 s⁻¹ | kon [9]: 30000 M⁻¹ s⁻¹ | Binding to 1 nM KDR, % [13]: 3%

B6: M5FL (designed binder)
chain: B4 chain with T56L, V77K, A78E, Q79R, D81G, H82R, I85F
notes: 10Fn3 clone with WT N-terminus; Tail and tag not included here; also called clone M5FL
fold improvement over the original clone (159Q(8)L) [17]: 1000 fold | HUVEC proliferation assay: decrease in proliferation [18]: ~40%

Next, values leading:

binding result [1]: binds
B1: CT-01 (designed binder)
chain: B2 chain with G64V, V69D, E70G, H75L, M77S, T78I
notes: Core form of CT-01

Binding to 1 nM KDR, % [14]: 3% | binding result [15]: no binding | Kd [16]: 11 nM
B5: VR28 (designed binder)
chain: B4 chain
notes: 10Fn3 clone with WT N-terminus; tag not included; also called VR28 (I69T); VR28 clone

Kd [19]: > 3000 nM | Kd [9]: 2 nM | koff [9]: 0.0001 s⁻¹ | kon [9]: 50000 M⁻¹ s⁻¹
B7: 159(Q8L) (designed binder)
chain: B4 chain with T56A, V77M, N80S, D81G, I85F
notes: clone 159 with Q8 corrected to the wild type L; His6-tagged E. coli protein in BIAcore, tag left out; also called Clone 159 (Q8L)
